The record followed here is patent publication US12286461B2, “Recombinant fused polypeptide and use thereof” (priority 2019, dated 2025).

In experiment [1] the test system is SD rats with renal fibrosis. The experiment can be described thus: Renal fibrosis animal model (ureter ligation). The class given is in vivo. The conditions noted are these: 6 mg/kg s.c. once every five days, after 15 days. How it is done: A renal fibrosis animal model was established. SD rats were anesthetized with 4% chloral hydrate, injected with 1 mL/100 g intraperitoneally, fixed to an operation board, and sterilized in an operation area for further use. […] Muscular layers and abdominal walls were sewed layer by layer, the suture was disinfected with alcohol. After SD rats woke up, the rats were put into a cage for feeding. In the blank group, ureter was not ligated, and other steps were the same.
Then, the animals fell into a blank group, a model group, and recombinant fused polypeptide administration groups, and the administration was started on the second day after the operation, and was performed for 15 days. After administration for 15 days, blood was taken and supernatant was taken to detect the content of TGF-β1 in serum.

The next experiment relates to protozoa. Nature of the experiment: Mouse pneumonia model, protozoal pneumonia. In kind it is in vivo. The conditions noted are these: BALB/C mouse pneumonia model, nasal drip; average ± standard deviation. The text has this: (§1) A mouse pneumonia model was successfully established by using a nasal drip method. BALB/C mice with a body weight of 18-24 g were selected, and then anesthetized with ether on day 0, day 1 and day 2, respectively, prepared Streptococcus pneumoniae bacteria solution, adenovirus concentrated solution, Mycoplasma pneumoniae, Chlamydia pneumoniae, protozoa and pneumonia fungi were slowly dropped into the nasal cavity of the mice, so that the bacteria solutions entered the trachea and bronchi, and the bacteria solutions were prevented from flowing into the esophagus during the operation to avoid inactivation of the bacteria solutions, so that the mouse pneumonia model was established. After the model was successfully established, the recombinant fused polypeptides according to the present invention were administered.

Experiment [2] deals with SD rats with CCl4-induced hepatic fibrosis. The experiment can be described thus: CCl4-induced hepatic fibrosis animal model. Conditions: 40% CCl4 i.p. twice a week for 8 weeks, fused polypeptides 6 mg/kg s.c. once every five days. In kind it is in vivo. How it is done:
Modeling was performed on the rats. Each group other than the blank group was injected with 40% CCl4 intraperitoneally twice a week, the first injection was performed at 3 mL/kg, and then injection was performed at 2 mL/kg. Modeling was performed for 8 weeks to induce hepatic fibrosis. After the intraperitoneal injection of CCl4 for the fourth time, the drugs were administered according to Table 3. After induction for 8 weeks, the administration was stopped. The SD rats were dissected the next day, and blood was taken. The liver tissue was stored in a refrigerator at −80° C. for further use. The expression of HYP in the hepatic tissue of rats was detected. [table]

The test system of the next experiment is Mycoplasma pneumoniae. The experiment can be described thus: Mouse pneumonia model, mycoplasma pneumonia. In kind it is in vivo. The conditions noted are these: BALB/C mouse pneumonia model, nasal drip; average ± standard deviation.
Excerpt: as §1

The test system of experiment [3] is SD rats with bleomycin-induced pulmonary fibrosis. The experiment can be described thus: Bleomycin-induced pulmonary fibrosis animal model. The conditions noted are these: for Survival rate (%): bleomycin 5 mg/kg intratracheal, dosage 10 mg/kg (Table 2), administration cycle 15 days from day 7 after modeling; for hydroxyproline (HYP) content in lung tissue / content of TGF-β1 in serum, difference from the model group: bleomycin pulmonary fibrosis, after 15 days; for hydroxyproline (HYP) content in lung tissue: 10 mg/kg s.c. once every five days, FIG. 1; for content of TGF-β1 in serum, difference from the model group: fused polypeptides 10 mg/kg s.c. once every five days, nintedanib 25 mg/kg intragastric once a day. The class given is in vivo. Here is the method: SD rats were anesthetized by intraperitoneal injection of 4% chloral hydrate with a concentration of 1 mL/100 g. After anesthesia, the rats were fixed and their necks were disinfected by using cotton with 75% alcohol. The skin of the rat neck was longitudinally cut with scissors, and the fascia and muscle were longitudinally bluntly torn with tweezers to expose the trachea. A syringe was inserted into the trachea to inject 5 mg/kg bleomycin, while a blank group was injected with an equal amount of normal saline. Then a rat plate was quickly erected and rotated, the rats' breathing was observed, the neck wound was sterilized after rotation and was sewn, and an amoxicillin anti-inflammatory drug was sprinkled on the suture. After the operation, the rats were put back into a dry and clean cage for resting, waiting for awakening. The rats were awakened after about 1-2 hours, and then fed normally. On the 7th day after modeling, modeling group animals randomly fell into a model group, a Nintedanib positive drug group, recombinant fused polypeptide 1, 2, 3 and 4 dosage groups, and a normal control group, and the groups were administered separately for an administration cycle of 15 days. Living situations of rats were observed every day and their weights were weighed. After administration for 15 days, the eyeballs were removed and blood was taken, the rats were dissected, and lungs were taken. The content of TGF-β1 in serum and the content of HYP in lung tissues were detected.

Another experiment relates to pulmonary infections. The experiment can be described thus: Mouse pneumonia model, pneumonia caused by pulmonary infections. Conditions: BALB/C mouse pneumonia model, nasal drip, average ± standard deviation. In kind it is in vivo, BALB/C mice.
Excerpt: as §1

The subject of the next experiment is adenovirus. The experiment can be described thus: Mouse pneumonia model, viral pneumonia. The conditions noted are these: BALB/C mouse pneumonia model, nasal drip; average ± standard deviation. In kind it is in vivo.
Excerpt: as §1

A further experiment relates to pneumonia fungi. Nature of the experiment: Mouse pneumonia model, fungal pneumonia. In kind it is in vivo. Conditions: BALB/C mouse pneumonia model, nasal drip; average ± standard deviation.
Excerpt: as §1

Experiment [4] relates to mice with bleomycin-induced skin fibrosis. Nature of the experiment: Bleomycin-induced skin fibrosis model. The class given is in vivo, C57/BL black mice. Conditions: C57/BL mice, bleomycin 10 μg/mL s.c. daily for 28 days, 10 mg/kg s.c. once every five days, 6 times, FIG. 6. Here is the method: Bleomycin (10 μg/mL) was injected subcutaneously every day for 28 days to form skin fibrosis. During the modeling period, the administration groups were given drugs for treatment. After modeling, the mice were killed on the next day, and the skin tissue of the mouse back was taken to detect the content of HYP in the skin tissue. [table]

Experiment [5] has as its system mice with myocardial fibrosis. The experiment can be described thus: Isoprenaline-induced myocardial fibrosis animal model. In kind it is in vivo. The conditions noted are these: BALB/c mice, isoprenaline 5 mg/kg s.c. daily for 7 days, 12 mg/kg s.c. (Table 5), after the 8th day, FIG. 5. How it is done:
In the model group, the experimental mice were injected with isoprenaline (ISO) (5 mg/kg) subcutaneously on the back of the mice every day for 7 consecutive days, and the mice were injected with normal saline subcutaneously (200 μL/mouse) every day. In the blank group, normal saline was injected subcutaneously (200 μL/mouse) every day. […] After the 8th day, blood was taken and was centrifuged, the supernatant was taken, and the content of TGF-β1 in serum was detected.

A further experiment relates to Chlamydia pneumoniae. The experiment can be described thus: Mouse pneumonia model, chlamydia pneumonia. In kind it is in vivo. The conditions noted are these: BALB/C mouse pneumonia model, nasal drip; average ± standard deviation.
Excerpt: as §1

The subject of another experiment is Streptococcus pneumoniae. The experiment can be described thus: Mouse pneumonia model, bacterial pneumonia. In kind it is in vivo. The conditions noted are these: BALB/C mouse pneumonia model, nasal drip; average ± standard deviation.
Excerpt: as §1

The mark [6] stands for this setting: listed as recombinant fused polypeptide III.
[7] abbreviates: listed as recombinant fused polypeptide II.

B1: PRCWRGEGGGGIVRRADRAAVPGGGGRGDAEAAAKEAAAKEAAAKEAAAKKSDKPGGGGTSLDASIIWAMMQNGGGGLSKL (protein)
chain: PRCWRGEGGGGIVRRADRAAVPGGGGRGDAEAAAKEAAAKEAAAKEAAAKKSDKPGGGGTSLDASIIWAMMQNGGGGLSKL
notes: Recombinant fused polypeptide X-linker2-Y expressed in 293 cells
Consider B1, for which the “content of TGF-β1 in serum, difference from the model group” value was “highly significantly different from the model group (**P<0.01)” in [1] (FIG. 4, listed as recombinant fused polypeptide 3, 6 mg/kg); “can lower the TGF-β1 content” in [1] (FIG. 4, listed as recombinant fused polypeptide III, 6 mg/kg); “highly significantly different from the model group (**P<0.01)” in experiment [3] (FIG. 2, listed as fused polypeptide 3); “can lower the TGF-β1 content” in experiment [3] (FIG. 2, listed as recombinant fused polypeptide III); “significantly different from the model group (**P<0.01)” in experiment [5] (listed as recombinant fused polypeptide 3); “can lower the TGF-β1 content” in [5] (setting [6]). Further, the “Inhibitory effect, Protozoal pneumonia” value in the experiment on protozoa came out at 68.29 ± 4.70. The “content of HYP in liver tissue, difference from the model group” value is listed as “highly significantly different from the model group (***P<0.001)” in experiment [2] (FIG. 3, listed as Recombinant fused polypeptide 3) and “can lower the HYP content” in experiment [2] (FIG. 3, listed as recombinant fused polypeptide III). Besides, the “Inhibitory effect, Mycoplasma pneumonia” value in the experiment on Mycoplasma pneumoniae was 45.53 ± 4.33. The entries for the “Survival rate (%)” value in experiment [3] and in [3] (listed as fused polypeptide 3) were 85.7% and “equivalent to that of the positive drug group”, respectively. In experiment [3], the “hydroxyproline (HYP) content in lung tissue” value is recorded as “can lower the hydroxyproline content”. Also, the “Inhibitory effect, Pneumonia caused by pulmonary infections” value is on record as 58.81 ± 4.10 with pulmonary infections and “inhibitory effect” in the experiment with pulmonary infections (setting [6]). In addition, the “Inhibitory effect, Viral pneumonia” value with adenovirus came to 69.54 ± 7.49. In the experiment with pneumonia fungi, the “Inhibitory effect, Fungal pneumonia” value came to 65.98 ± 3.64. Further, the “content of HYP in skin tissue, difference from the model group” value is “highly significantly different from the model group (**P<0.01)” in experiment [4] (listed as recombinant fused polypeptide 3, 10 mg/kg) and “can lower the hydroxyproline content” in experiment [4] (listed as recombinant fused polypeptide III, 10 mg/kg). Moreover, in the experiment with Chlamydia pneumoniae, the “Inhibitory effect, Chlamydia pneumonia” value is given as 55.78 ± 4.32. Also, in the experiment on Streptococcus pneumoniae, the “Inhibitory effect, Bacterial pneumonia” value was found to be 48.79 ± 7.26.

B2: Acetyl-SDKPGGGGTSLDASIIWAMMQNGGGGLSKLGGGGSGGGGSGGGGSPRCWRGEGGGGIVRRADRAAVPGGGGRGD (protein)
chain: SDKPGGGGTSLDASIIWAMMQNGGGGLSKLGGGGSGGGGSGGGGSPRCWRGEGGGGIVRRADRAAVPGGGGRGD
modifications: N-acetyl
notes: Recombinant fused polypeptide Y-linker1-X expressed in 293 cells
With B2, the “content of TGF-β1 in serum, difference from the model group” value is given as “highly significantly different from the model group (***P<0.001)” in experiment [1] (FIG. 4, listed as recombinant fused polypeptide 2, 6 mg/kg); “can lower the TGF-β1 content” in experiment [1] (FIG. 4, listed as recombinant fused polypeptide II, 6 mg/kg); “highly significant different from the model group (***P<0.001)” in [3] (FIG. 2, listed as fused polypeptide 2); “can lower the TGF-β1 content” in experiment [3] (FIG. 2, listed as recombinant fused polypeptide II); “highly significantly different from the model group (***P<0.001)” in experiment [5] (listed as recombinant fused polypeptide 2); “can lower the TGF-β1 content” in [5] (setting [7]). For the same molecule, the “Inhibitory effect, Protozoal pneumonia” value with protozoa was 66.13 ± 5.36. Moreover, the “content of HYP in liver tissue, difference from the model group” value in experiment [2] (FIG. 3, listed as Recombinant fused polypeptide 2) is recorded as “highly significantly different from the model group (***P<0.001)”; in [2] (FIG. 3, listed as recombinant fused polypeptide II) it was “can lower the HYP content”. Further, the “Inhibitory effect, Mycoplasma pneumonia” value with Mycoplasma pneumoniae worked out at 45.72 ± 5.69. In addition, the “Survival rate (%)” value in experiment [3] was 85.7%; in experiment [3] (listed as fused polypeptide 2) it was “equivalent to that of the positive drug group”. In addition, the “hydroxyproline (HYP) content in lung tissue” value in [3] is “can lower the hydroxyproline content”. In addition, the “Inhibitory effect, Pneumonia caused by pulmonary infections” value is given as 65.87 ± 3.19 with pulmonary infections and “inhibitory effect” with pulmonary infections (setting [7]). For the same molecule, in the experiment with adenovirus, the “Inhibitory effect, Viral pneumonia” value amounted to 58.08 ± 5.27. Also, the “Inhibitory effect, Fungal pneumonia” value in the experiment on pneumonia fungi is 63.07 ± 3.02. The “content of HYP in skin tissue, difference from the model group” value is “highly significantly different from the model group (***P<0.001)” in experiment [4] (listed as recombinant fused polypeptide 2, 10 mg/kg) and “can lower the hydroxyproline content” in experiment [4] (listed as recombinant fused polypeptide II, 10 mg/kg). Also, in the experiment on Chlamydia pneumoniae, the “Inhibitory effect, Chlamydia pneumonia” value was determined as 50.21 ± 4.85. Besides, in the experiment on Streptococcus pneumoniae, the “Inhibitory effect, Bacterial pneumonia” value came to 49.18 ± 5.32.
